This data set deals with the molecule itself. The data set can be described thus: crystal structure; hanging-drop vapour diffusion, 23°C, 0.2 M lithium sulphate monohydrate, 0.1 M TRIS hydrochloride pH 8.5, 30% PEG 8,000; single protomer in the asymmetric unit, tetramer found by PISA analysis of the crystal.

These results are taken from PMC10889901, “Deciphering the structure of a multi-drug resistant Acinetobacter baumannii short-chain dehydrogenase reductase” (PLOS ONE, 2024).

By stoichiometry N is commonly meant a count of units in the complex or per binding partner.

B1: Acinetobacter baumannii short-chain dehydrogenase reductase (enzyme)
chain: SNAMKLDLQNKIAVVSGSTSGIGLGIAKGLASAGATVVVVGRKQAGVDEAIAHIRQSVPEASLRGVDADLTTEQGAAALFAAEPKADILVNNLGIFNDEDFFSVPDEEWMRFYQVNVLSGVRLARHYAPSMVEQGWGRIIFISSESGVAIPGDMINYGVTKSANLAVSHGLAKRLAGTGVTVNAVLPGPTFTDGLENMLADAAAKAGRSTRDQADEFVKVLRPSSIIQRAAEVDEVANMVVYIASPLSSATSGAALRVDGGVVDTLV
notes: residues of the vector printed after the TEV cleavage site (ENLYFQ/SNA), left on the protein after the tag is removed; short-chain dehydrogenase reductase (SDR) of Acinetobacter baumannii; Vector pMCSG21; one protomer in the asymmetric unit, the tetramer comes from crystal symmetry (PISA); also called SDR; SDR enzyme; source: E. coli BL21(DE3) pLysS, purified (HisTrap, TEV cleavage, Superdex …)
For B1, the “stoichiometry N” value was 4.
